Substitutions are numbered along the chain they refer to. Where no end group is shown, it is not given here. fluorescein = fluorescein label at the N-terminus
Columns and labels:
[1] = biological target: Ssa1 (Saccharomyces cerevisiae, UniProt P10591); assay: fluorescence polarization, displacement of ATP-FAM; format: binding; conditions: 50 uM ATP, 1 uM Ssa1, 20 nM ATP-FAM, pH 7.5, 25 °C
[2] = biological target: T1, Msi3 (Candida albicans, UniProt Q96VB9); assay: limited trypsin digest; format: binding; conditions: 1 mM ATP, pH 7.5, 10 mM Mg(OAc)2, 25 °C
T1 sequence (Q96VB9 1-701): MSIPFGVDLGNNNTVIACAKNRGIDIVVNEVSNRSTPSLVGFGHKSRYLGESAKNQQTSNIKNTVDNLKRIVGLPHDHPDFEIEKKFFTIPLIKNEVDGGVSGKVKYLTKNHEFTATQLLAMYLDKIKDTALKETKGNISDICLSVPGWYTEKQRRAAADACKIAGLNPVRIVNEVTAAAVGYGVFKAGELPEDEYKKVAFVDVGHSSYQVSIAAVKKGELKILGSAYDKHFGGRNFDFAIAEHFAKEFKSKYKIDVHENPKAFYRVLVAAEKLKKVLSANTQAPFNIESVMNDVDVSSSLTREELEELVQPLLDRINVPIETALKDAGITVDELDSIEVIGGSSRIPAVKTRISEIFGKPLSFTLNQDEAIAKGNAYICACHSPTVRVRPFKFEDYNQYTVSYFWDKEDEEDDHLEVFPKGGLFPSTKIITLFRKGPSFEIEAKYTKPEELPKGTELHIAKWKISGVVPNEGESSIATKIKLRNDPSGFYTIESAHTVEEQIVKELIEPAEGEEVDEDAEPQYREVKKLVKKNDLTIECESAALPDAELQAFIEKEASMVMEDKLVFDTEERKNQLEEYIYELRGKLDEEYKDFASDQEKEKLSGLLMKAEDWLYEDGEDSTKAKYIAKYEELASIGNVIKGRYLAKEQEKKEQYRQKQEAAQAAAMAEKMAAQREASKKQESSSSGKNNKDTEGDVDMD

[3] = biological target: Msi3-Ssa1 complex (Candida albicans | S. cerevisiae, UniProt Q96VB9 1-701; P10591 1-642); assay: native gel or EMSA
Sequence of Msi3-Ssa1 complex (P10591 whole entry, one chain of several): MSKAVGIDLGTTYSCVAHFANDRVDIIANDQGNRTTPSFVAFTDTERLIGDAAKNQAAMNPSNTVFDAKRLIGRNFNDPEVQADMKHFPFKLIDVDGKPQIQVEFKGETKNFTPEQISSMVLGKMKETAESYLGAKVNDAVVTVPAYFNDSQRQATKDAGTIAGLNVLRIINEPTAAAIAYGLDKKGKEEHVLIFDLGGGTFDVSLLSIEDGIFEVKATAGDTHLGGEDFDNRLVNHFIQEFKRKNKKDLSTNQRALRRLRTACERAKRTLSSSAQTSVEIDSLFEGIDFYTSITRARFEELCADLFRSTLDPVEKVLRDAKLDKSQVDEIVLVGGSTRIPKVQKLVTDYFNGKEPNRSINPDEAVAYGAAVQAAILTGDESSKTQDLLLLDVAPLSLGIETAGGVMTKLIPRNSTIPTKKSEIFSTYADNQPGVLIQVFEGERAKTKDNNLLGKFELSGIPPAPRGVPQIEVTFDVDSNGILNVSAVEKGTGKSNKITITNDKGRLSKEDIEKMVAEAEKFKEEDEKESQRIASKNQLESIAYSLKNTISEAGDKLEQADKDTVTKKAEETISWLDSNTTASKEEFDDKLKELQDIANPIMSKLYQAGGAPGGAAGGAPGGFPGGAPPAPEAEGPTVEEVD

[4] = biological target: Ssa1, the major Hsp70 in the cytosol of S. cerevisiae (S. cerevisiae, UniProt P10591 1-642); assay: native gel or EMSA
Sequence of Ssa1, the major Hsp70 in the cytosol of S. cerevisiae (P10591 whole entry): as the sequence (P10591 whole entry, one chain of several) above

[5] = biological target: T2, Msi3, the sole Hsp110 in Candida albicans, wild type (Candida albicans, UniProt Q96VB9 1-701); assay: fluorescence polarisation
T2 sequence (looked up): T1 sequence (Q96VB9 1-701)

[6] = biological target: T3, Msi3 R235E (Candida albicans, UniProt Q96VB9 1-701, R235E); assay: fluorescence polarisation
T3 sequence (looked up): T1 sequence (Q96VB9 1-701) with R235E

[7] = biological target: T4, Msi3 I164D (Candida albicans, UniProt Q96VB9 1-701, I164D); assay: fluorescence polarisation
T4 sequence (looked up): T1 sequence (Q96VB9 1-701) with I164D

Sequence of Ssa1 (P10591 2-642): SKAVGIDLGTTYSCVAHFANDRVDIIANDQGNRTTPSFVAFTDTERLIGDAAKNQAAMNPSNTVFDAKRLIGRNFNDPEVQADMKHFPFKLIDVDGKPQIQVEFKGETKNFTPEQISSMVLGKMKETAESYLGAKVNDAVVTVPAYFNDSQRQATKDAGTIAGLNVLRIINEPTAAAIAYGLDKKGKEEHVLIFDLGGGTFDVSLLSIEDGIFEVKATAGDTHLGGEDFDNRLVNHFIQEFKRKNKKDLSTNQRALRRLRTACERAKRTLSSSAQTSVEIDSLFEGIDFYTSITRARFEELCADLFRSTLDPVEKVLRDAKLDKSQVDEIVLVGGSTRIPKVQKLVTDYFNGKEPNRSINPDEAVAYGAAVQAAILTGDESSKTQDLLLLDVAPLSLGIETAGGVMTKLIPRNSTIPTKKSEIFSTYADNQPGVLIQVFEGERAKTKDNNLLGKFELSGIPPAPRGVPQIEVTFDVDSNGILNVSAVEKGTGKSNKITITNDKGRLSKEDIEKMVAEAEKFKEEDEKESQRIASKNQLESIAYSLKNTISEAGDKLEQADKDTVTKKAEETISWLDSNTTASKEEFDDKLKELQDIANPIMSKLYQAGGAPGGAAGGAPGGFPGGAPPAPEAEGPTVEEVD

## Nc1ncnc2c1ncn2[C@@H]1O[C@H](COP(=O)(O)OP(=O)(O)OP(=O)(O)O)[C@@H](O)[C@H]1O [ATP]
[1]
  fluorescence polarization, displacement of ATP-FAM: the bound ATP-FAM was slowly replaced by the unlabeled ATP
[2]
  limited trypsin digest (ATP-induced conformational change): two signature proteolytic bands were observed in the presence of ATP for the WT Msi3

B1: NR peptide (peptide)
peptide: fluorescein-NRLLLTG
[3]
  binding result: binds
[4]
  binding result: binds

B2: TRP2_181 peptide (peptide)
peptide: fluorescein-VYDFFVWLHYY
[5]
  binding result: binds
[6]
  binding result: binds
[7]
  binding result: binds
